Test results taken from US20210403546A1 (LUDWIG INSTITUTE FOR CANCER RESEARCH, published 2021).
Where a chain is given by its changes, count along the chain named. Names and notes keep the numbering of the source.

B1: LCR13A1_scFv (soluble scFv of murine 13A1) (scFv)
scFv: DIVLTQSPASLAVSLGQRATISCRASESVDNYGISFLNWFQQKPGQPPKLLIYAASNQGSGVPARFSGSGSGTDFSLNIHPMEEDDTGMYFCQQSKEVPRTFGGGTKLEIKRTVAARQEGGSGEGGSGESNAAAEVQLQQSGTVLARPGASVKMSCKTSGYTFTNYWMHWVRQRPGQGLEWIGTIYPGNSDTNYNQKFKDKAKLTAVTSATTAYMELSSLTNEDSAVYFCTREDSRSLYYNGWDYFDYWGQGTLVTVSSASTKAS
notes: Orientation VL-linker-VH; expressed in E. coli from pCHV101; also called LCR13A1 soluble scFv
B2: 13A1_DH Fab (LCR13A1_VK_GLv1_08 + LCR13A1_VH_GLv1_06) (Fab, V domains shown)
VH: QVQLVQSGSVLAKPGASVKVSCKASGYTFTNYWTHWVRQAPGQGLEWIGTIYPGNSDTNYNQKFKDRAKLTAVTSTSTVYMELSSLRSEDTALYYCTREDSRSLNFNGWDYFDHWGQGTLVTVSS
VL: DIVMTQSPDSLAVSLGQRASISCRASESVDNYGISFLNWFQQKPGQPPKLLIYAASNQGSGVPSRFSGSGSGTDFTLNIHPLEAEDAATYYCQQSKEVPRTFGGGTKVEIK
notes: Human stabilized IgG1 Fab, 6xHis on CH1
B3: 13A1_DF Fab (LCR13A1_VK_GLv1_08 + LCR13A1_VH_GLv1_04) (Fab, V domains shown)
VH: B2 VH with T34M, L93V, H114Y
VL: B2 VL
notes: as for B2
B4: 13A1_CF Fab (LCR13A1_VK_GLv1_07 + LCR13A1_VH_GLv1_04) (Fab, V domains shown)
VH: B2 VH with T34M, L93V, H114Y
VL: B2 VL with Q17E, S20T, F36L
notes: as for B2
B5: 13A1_DG Fab (LCR13A1_VK_GLv1_08 + LCR13A1_VH_GLv1_05) (Fab, V domains shown)
VH: B2 VH with N105Y, F106Y
VL: B2 VL
notes: as for B2
B6: 13A1_CH Fab (LCR13A1_VK_GLv1_07 + LCR13A1_VH_GLv1_06) (Fab, V domains shown)
VH: B2 VH
VL: B2 VL with Q17E, S20T, F36L
notes: as for B2
B7: 13A1_BH Fab (LCR13A1_VK_GLv1_06 + LCR13A1_VH_GLv1_06) (Fab, V domains shown)
VH: B2 VH
VL: B2 VL with Q17E, S20T, F40Y
notes: as for B2
B8: 13A1_BG Fab (LCR13A1_VK_GLv1_06 + LCR13A1_VH_GLv1_05) (Fab, V domains shown)
VH: B2 VH with N105Y, F106Y
VL: B2 VL with Q17E, S20T, F40Y
notes: as for B2
B9: 13A1_BF Fab (LCR13A1_VK_GLv1_06 + LCR13A1_VH_GLv1_04) (Fab, V domains shown)
VH: B2 VH with T34M, L93V, H114Y
VL: B2 VL with Q17E, S20T, F40Y
notes: as for B2
B10: 13A1_EG Fab (LCR13A1_VK_GLv1_09 + LCR13A1_VH_GLv1_05) (Fab, V domains shown)
VH: B2 VH with N105Y, F106Y
VL: B2 VL with F36L, F40Y
notes: as for B2
B11: 13A1_EH Fab (LCR13A1_VK_GLv1_09 + LCR13A1_VH_GLv1_06) (Fab, V domains shown)
VH: B2 VH
VL: B2 VL with F36L, F40Y
notes: as for B2
B12: 13A1_EF Fab (LCR13A1_VK_GLv1_09 + LCR13A1_VH_GLv1_04) (Fab, V domains shown)
VH: B2 VH with T34M, L93V, H114Y
VL: B2 VL with F36L, F40Y
notes: as for B2
B13: 13A1_CG Fab (LCR13A1_VK_GLv1_07 + LCR13A1_VH_GLv1_05) (Fab, V domains shown)
VH: B2 VH with N105Y, F106Y
VL: B2 VL with Q17E, S20T, F36L
notes: as for B2
B14: 13A1_AH Fab (LCR13A1_VK_GLv3_02 + LCR13A1_VH_GLv1_06) (Fab, V domains shown)
VH: B2 VH
VL: DIVMTQSPDSLAVSLGERATINCKSSESVDNYGISFLNWYQQKPGKAPKLLIYAASNQGSGVPDRFSGSGSGTDFTLTISSLQAEDAAVYFCQQSKEVPRTFGGGTKLEIK
notes: as for B2
B15: 13A1_AF Fab (LCR13A1_VK_GLv3_02 + LCR13A1_VH_GLv1_04) (Fab, V domains shown)
VH: B2 VH with T34M, L93V, H114Y
VL: B14 VL
notes: Human stabilized IgG1 Fab: VH-CH1(IgG1)-6xHis and VK-CK, CK/CH1 with the stabilizing mutations of Chen et al 2016
B16: 13A1_AG Fab (LCR13A1_VK_GLv3_02 + LCR13A1_VH_GLv1_05) (Fab, V domains shown)
VH: B2 VH with N105Y, F106Y
VL: B14 VL
notes: as for B2
B17: LCR13A1_VH_GLv1_03_LCR13A1_VK_GLv3 (LCR13A1-2B) IgG4[S228P] (antibody, V domains shown)
VH: B2 VH with T34M, L93V, N105Y, F106Y, H114Y
VL: DIVMTQSPDSLAVSLGERATINCKSSESVDNYGISFLNWFQQKPGKAPKLLIYAASNQGSGVPDRFSGSGSGTDFTLTISSLQAEDVAVYFCQQSKEVPRTFGGGTKLEIKR
notes: VK + CK*01; also called Ab 2B
B18: LCR13A1_VH_GLv1_03_LCR13A1_VK_GLv1_03 (LCR13A1-2D) IgG4(S228P) (antibody, V domains shown)
VH: B2 VH with T34M, L93V, N105Y, F106Y, H114Y
VL: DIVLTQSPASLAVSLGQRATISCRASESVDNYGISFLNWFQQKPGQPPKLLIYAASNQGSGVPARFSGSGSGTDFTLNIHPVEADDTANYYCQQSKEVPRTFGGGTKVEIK
notes: Human IgG4 (IGHG4*01 with S228P) and human CK*01; also called Ab 2D
B19: LCR13A1_VH_GLv1_03_LCR13A1_VK_GLv1_05 (LCR13A1-2F) IgG4[S228P] (antibody, V domains shown)
VH: B2 VH with T34M, L93V, N105Y, F106Y, H114Y
VL: DIVMTQSPDSLAVSLGERATISCRASESVDNYGISFLNWFQQKPGQPPKLLIYAASNQGSGVPSRFSGSGSGTDFTLNIHPLEAEDAATYYCQQSKEVPRTFGGGTKVEIKR
notes: VK + CK*01; also called Ab 2F; hIgG4 13A1-2F
B20: LCR13A1_VH_GLv1_03_LCR13A1_VK_GLv1_04 (LCR13A1-2E) IgG4(S228P) (antibody, V domains shown)
VH: B2 VH with T34M, L93V, N105Y, F106Y, H114Y
VL: B2 VL with M4L, D9A, S20T, T89A
notes: Human IgG4 (IGHG4*01 with S228P) and human CK*01; also called Ab 2E
B21: LCR13A1_VH_GLv3_LCR13A1_VK_GLv3 (LCR13A1-2A) IgG4(S228P) (antibody, V domains shown)
VH: QVQLVQSGSELKKPGASVKVSCKTSGYTFTNYWMHWVRQAPGQGLEWIGTIYPGNSDTNYNQKFQGRVTITRDTSASTAYMELSSLRSEDTAVYFCTREDSRSLYYNGWDYFDYWGQGTTVTVSS
VL: B14 VL with Y40F, A87V
notes: Human IgG4 (IGHG4*01 with S228P) and human CK*01; also called Ab 2A
B22: LCR13A1_VH_GLv3_LCR13A1_VK_GLv1_03 (LCR13A1-2C) IgG4(S228P) (antibody, V domains shown)
VH: B21 VH
VL: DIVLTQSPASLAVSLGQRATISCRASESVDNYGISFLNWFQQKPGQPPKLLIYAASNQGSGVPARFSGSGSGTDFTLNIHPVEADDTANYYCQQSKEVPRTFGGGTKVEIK
notes: Human IgG4 (IGHG4*01 with S228P) and human CK*01; also called Ab 2C

These binders were tested against T1, human recombinant TGF-b1 (human, UniProt P01137 279-390) (assay: ELISA, scFv culture on plate-coated TGF-b1, anti-cmyc detection).
T1 construct: also called TGF-β1; hTGF-β1
T1 sequence (P01137 279-390 limits assumed): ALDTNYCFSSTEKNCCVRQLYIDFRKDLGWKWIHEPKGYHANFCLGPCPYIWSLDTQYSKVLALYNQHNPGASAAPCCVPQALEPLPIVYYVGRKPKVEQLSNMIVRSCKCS
B1: binds.

These binders were tested against T1, human recombinant TGF-b1 (assay: SPR (Biacore T200), 10 nM Fab over amine-coupled TGFb1 (492 RUs)).
Method: FIG. 27 provides Biacore analysis of the new mutant variant antibodies and compares the new mutants versus parent variant 13A1-2F and versus mu13A1. Selected variants have different monovalent (huIgG1 stabilized Fab format). Biacore binding kinetics, range from lower to higher than the parental mouse 13A1 (mu13A1, hybrid with mouse VK/VH and huCK/huCH1). The data presented is ka, kd and apparent KD. TGFb1 (chip): 492 Rus, Fabs: 10 nM, Flow rate: 30 ul/min, Contact time: 510s, Diss. Time: 600s. Quality: Chi(2)<=1% Rmax and U score <=5. Data is presented for mutant variant antibodies 13A1_AF, 13A1_AG, 13A1_AH, 13A1_BF, 13A1_BG, 13A1_BH, 13A1_CF, 13A1_CG, 13A1_CH, 13A1_DF, 13A1_DG, 13A1_DH, 13A1_EF, 13A1_EG and 13A1_EH.
SPR binding analysis of Fabs: Experiments were performed using the Biacore T200 equipped with the Series S sensor chip CMS (GE Healthcare, cat. #BR-1005-30). The instrument temperature was set at 25° C. for all steps in the analysis while the compartment temperature was set at 10° C. All the assays were performed using the running buffer HBS-EP+ 1×. Recombinant TGF-β1 (Biocat, cat. #TG1-H4212-50 ug-AC) was immobilized with the standard amine-coupling chemistry using a solution of the ligand at 1 ug/mL in acetate, pH 4.5. Recombinant TGF-β1 was injected for several minutes to achieve a target density of 492 RUs. For TGF-β1 kinetic analysis Fabs were diluted in running buffer to 10 nM. One buffer blank was always injected before the injection of the antibody sample. The antibodies were then injected for 8.5 minutes (510 s) at 30 uL/min with 600 seconds of dissociation time. Regeneration was performed with 60 seconds of injection at 30 uL/min of 10 mM glycine 1.5. The Biacore binding kinetics range from lower to higher than the parental mouse 13A1 (mu13A1, hybrid with mouse VK/VH and huCK/huCH1.
B2: binds. B3: binds. B4: binds. B5: binds. B6: binds. B7: binds. B8: binds. B9: binds. B10: binds. B11: binds. B12: binds. B13: binds. B14: binds. B15: binds. B16: binds.

The binders below were run against T1, human recombinant TGF-b1 (assay: competition ELISA on hTGF-β1-coated plate; competitor biotinylated murine 13A1).
Method: Nunc Maxisorb ELISA plates were coated overnight at 8° C. with 0.5 μg/ml hTGF-β1 (Peter Sun, NIH) or hTGF-β3 (Shenandoah Biotech) at 0.5 μg/ml in 40 mM glycine buffer pH 9. Plates were washed and blocked with 10% FCS for 1 h at 37° C. In a separate low binding Greiner Bio-One ELISA plate, various concentrations of competing Abs were mixed with a constant concentration of biotinylated parental 13A1 or 1901 at 200 ng/ml in PBS+BSA (10 mg/ml) and then transferred onto the TGF-β-coated Nunc Maxisorb ELISA plate. After incubation for 2 h at 37° C. plates were washed, Avidine-HRP added and incubated for 1 h at 37° C. Plates washed again, TMB substrate was added and bound biotinylated antibody was quantitated by measuring color development in an ELISA reader at a wave length of 450 nm.
The potency of the humanized LCR13A1 IgG4 antibody variants to compete with the parental murine antibody for binding to TGFb1 was assessed by ELISA. The six IgG4 variants LCR13A1_VH_GLv3_LCR13A1_VK_GLv3 (LCR13A1-2A), LCR13A1_VH_GLv1_03_LCR13A1_VK_GLv3 (LCR13A1-2B), LCR13A1_VH_GLv3_LCR13A1_VK_GLv1_03 (LCR13A1-2C), LCR13A1_VH_GLv1_03_LCR13A1_VK_GLv1_03 (LCR13A1-2D), LCR13A1_VH_GLv1_03_LCR13A1_VK_GLv1_04 (LCR13A1-2E) and LCR13A1_VH_GLv1_03_LCR13A1_VK_GLv1_05 (LCR13A1-2F) competed with the parental murine 13A1 antibody for binding to TGFb1 in a dose-dependent manner (FIG. 17).
B17: binds. B18: binds. B19: binds. B20: binds. B21: binds. B22: binds.
